# Patent US6344362
# Target: SCCA1 recombinant protein expressed on transfected HepG2 and CHO cells (human)
substance,measurement,value
HBV viral particles present in the serum of patients with acute hepatitis B,HBV-DNA values of transfected cell lines relative to control cell lines,8 times
